From patent US20240270821A1, “GIP/GLP1/GCG TRI-RECEPTOR AGONISTS AND USES THEREOF” (priority 2023, published 2024) come the findings set out here.

Common to all, as to experiment: cell-based or functional assay
The target of one assay is hGLP-1R (Homo sapiens, UniProt P43220).
The target in assay [1] is T1, human GIP receptor (human) (UniProt P48546).
T1 sequence (looked up): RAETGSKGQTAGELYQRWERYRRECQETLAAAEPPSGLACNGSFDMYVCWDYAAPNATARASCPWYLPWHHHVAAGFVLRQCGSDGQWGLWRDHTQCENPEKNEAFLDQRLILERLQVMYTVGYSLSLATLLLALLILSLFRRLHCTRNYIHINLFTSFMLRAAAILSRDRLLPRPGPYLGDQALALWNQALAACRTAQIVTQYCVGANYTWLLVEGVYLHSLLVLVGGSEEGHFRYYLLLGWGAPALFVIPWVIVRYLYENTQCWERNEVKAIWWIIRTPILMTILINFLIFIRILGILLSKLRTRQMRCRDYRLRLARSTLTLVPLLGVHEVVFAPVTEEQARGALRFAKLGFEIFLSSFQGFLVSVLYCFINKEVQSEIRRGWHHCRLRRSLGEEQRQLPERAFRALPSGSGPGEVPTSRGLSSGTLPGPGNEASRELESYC

Assay [2] addresses human GLP-1R (SNAP-GLP-1R expressed in HEK293 cells) (human) (UniProt P43220).
Assay [3] addresses human glucagon receptor (human) (UniProt P47871).

Chain of hGLP-1R (P43220 24-463): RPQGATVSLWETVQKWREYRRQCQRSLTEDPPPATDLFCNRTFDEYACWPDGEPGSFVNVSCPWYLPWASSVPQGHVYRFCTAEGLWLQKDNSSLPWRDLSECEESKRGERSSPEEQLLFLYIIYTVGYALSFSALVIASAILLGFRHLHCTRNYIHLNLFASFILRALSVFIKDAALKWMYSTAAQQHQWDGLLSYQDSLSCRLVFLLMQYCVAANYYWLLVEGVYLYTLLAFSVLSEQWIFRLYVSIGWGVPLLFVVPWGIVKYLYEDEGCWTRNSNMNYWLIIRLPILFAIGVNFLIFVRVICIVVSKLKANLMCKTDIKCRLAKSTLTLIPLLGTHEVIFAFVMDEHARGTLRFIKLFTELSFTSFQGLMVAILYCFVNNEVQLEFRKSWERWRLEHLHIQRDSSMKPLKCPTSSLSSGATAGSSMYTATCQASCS
Chain of human GLP-1R (SNAP-GLP-1R expressed in HEK293 cells) (human) (P43220 24-463): as above
Chain of human glucagon receptor (human) (P47871 26-477): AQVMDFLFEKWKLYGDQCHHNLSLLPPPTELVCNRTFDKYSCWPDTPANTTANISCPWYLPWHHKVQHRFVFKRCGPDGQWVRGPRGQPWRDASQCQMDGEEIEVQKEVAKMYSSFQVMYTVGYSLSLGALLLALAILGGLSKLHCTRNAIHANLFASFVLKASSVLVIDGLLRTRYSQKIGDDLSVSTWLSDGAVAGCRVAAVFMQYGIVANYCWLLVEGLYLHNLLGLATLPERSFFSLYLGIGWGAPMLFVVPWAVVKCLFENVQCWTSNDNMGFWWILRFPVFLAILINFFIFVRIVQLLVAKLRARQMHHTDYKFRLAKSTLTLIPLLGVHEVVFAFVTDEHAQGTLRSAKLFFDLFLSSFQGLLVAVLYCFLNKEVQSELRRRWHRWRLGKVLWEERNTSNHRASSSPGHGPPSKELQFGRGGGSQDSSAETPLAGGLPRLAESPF

B1: Example 187 (peptide)
chain: YXQGTFTSDXSRXLDKKAQXAFIEYLIEXGESSGAPPPSGS
modifications: Aib, 4Pal, αMeL; lipidated Lys; C-terminal amide; synthetic construct; SITE 2: note = 2-Aminoisobutyric Acid; SITE 10: note = 3-(4-Pyridyl)-L-alanine; SITE 13: note = alpha-methyl-leucine; SITE 17: note = Lysine is chemically modified through conjugation of the epsilon-amino group of the Lysine side chain with (2-[2-(2-Amino-ethoxy)-ethoxy]-acetyl)
Consider B1, for which the Relative cAMP EC50, nM (0.1% casein) came out at 1.11 nM with hGLP-1R, 0.111 nM in assay [1] and 14.8 nM in assay [3]. Besides, the cAMP Rel EC50, nM (1% HSA) with hGLP-1R was found to be 178 nM; in assay [1], 15.6 nM; in assay [3], 2970 nM. Moreover, in assay [2], the GLP1R Internalization EC50 amounted to 17.2 nM. This molecule gave an Internalization % TOP in assay [2] of 57%.

B2: Example 226 (peptide)
chain: YXQGTFTSDXSQXLDKKAQXAFIEYLIEXGESSGAPPPSGS
modifications: non-natural residues, lipidated Lys, C-terminal amide; synthetic construct; SITE 2: note = 2-Aminoisobutyric Acid; SITE 10: note = 3-(4-Pyridyl)-L-alanine; SITE 13: note = alpha-methyl-leucine; SITE 17: note = Lysine is chemically modified through conjugation of the epsilon-amino group of the Lysine side chain with (2-[2-(2-Amino-ethoxy)-ethoxy]-acetyl)
B2: in the assay with hGLP-1R, the Relative cAMP EC50 is 1.97 nM and the cAMP Rel EC50, nM (1% HSA) was 354 nM. In assay [1], this molecule showed a Relative cAMP EC50 of 0.127 nM and a cAMP Rel EC50, nM (1% HSA) of 32.2 nM. In assay [2], this molecule had a GLP1R Internalization EC50 of 29.1 nM and an Internalization % TOP of 59.3%. In assay [3], this molecule yielded a Relative cAMP EC50 of 3.08 nM and a cAMP Rel EC50, nM (1% HSA) of 763 nM.

B3: Example 200 (peptide)
chain: YXQGTFTSDFSXXLDKKAQXAFIEYLLEXGPSSGAPPPSGT
modifications: non-natural residues, acylated Lys (AEEA-γGlu-C18 diacid), C-terminal amide; synthetic construct; SITE 2: note = 2-Aminoisobutyric Acid; SITE 12: note = L-ornithine; SITE 13: note = alpha-methyl-leucine; SITE 17: note = Lysine is chemically modified through conjugation of the epsilon-amino group of the Lysine side chain with (2-[2-(2-Amino-ethoxy)-ethoxy]-acetyl)-(gamma-Glu)
In the assay with hGLP-1R, B3 yielded a Relative cAMP EC50 of 3.19 nM and a cAMP Rel EC50, nM (1% HSA) of 395 nM. In assay [1], this molecule gave a Relative cAMP EC50 of 0.0739 nM and a cAMP Rel EC50, nM (1% HSA) of 13.7 nM. For the same molecule, in assay [2], the GLP1R Internalization EC50 worked out at 86.1 nM and the Internalization % TOP was 39.2%. Further, in assay [3], the Relative cAMP EC50 is 2.83 nM and the cAMP Rel EC50, nM (1% HSA) was found to be 360 nM.

B4: Example 212 (peptide)
chain: YXQGTFTSDFSXXLDKKAQXAFIEYLLEAGPSSGAPPPSGS
modifications: Aib, Orn, αMeL, D-Ala; acylated Lys; synthetic construct; SITE 2: note = 2-Aminoisobutyric Acid; SITE 12: note = L-ornithine; SITE 13: note = alpha-methyl-leucine; SITE 17: note = Lysine is chemically modified through conjugation of the epsilon-amino group of the Lysine side chain with (2-[2-(2-Amino-ethoxy)-ethoxy]-acetyl)-(gamma-Glu)
Turning to B4, the Relative cAMP EC50 with hGLP-1R worked out at 1.35 nM; in assay [1] it was 0.13 nM; in assay [3] it was 3.74 nM. The molecule also came in with a GLP1R Internalization EC50 in assay [2] of 79.7 nM. Besides, the Internalization % TOP in assay [2] was 43%.

B5: Example 192 (peptide)
chain: YXQGTFTSDFSXXLDKKAQXAFIEYLLEXGPSSGAPPPSGS
modifications: Aib, Orn, αMeL; lipidated Lys (AEEA-γGlu2-C18 diacid); C-term amide; synthetic construct; SITE 2: note = 2-Aminoisobutyric Acid; SITE 12: note = L-ornithine; SITE 13: note = alpha-methyl-leucine; SITE 17: note = Lysine is chemically modified through conjugation of the epsilon-amino group of the Lysine side chain with (2-[2-(2-Amino-ethoxy)-ethoxy]-acetyl)-(gamma-Glu)
As to B5, in the assay with hGLP-1R, the Relative cAMP EC50, nM (0.1% casein) was found to be 9.77 nM and the cAMP Rel EC50, nM (1% HSA) came out at 719 nM. Moreover, in assay [1], the Relative cAMP EC50, nM (0.1% casein) amounted to 0.142 nM and the cAMP Rel EC50, nM (1% HSA) was 9.86 nM. In assay [2], this molecule gave a GLP1R Internalization EC50 of 115 nM and an Internalization % TOP of 48.7%. In assay [3], this molecule had a Relative cAMP EC50, nM (0.1% casein) of 4.18 nM and a cAMP Rel EC50, nM (1% HSA) of 560 nM.

B6: Example 217 (peptide)
chain: YXQGTFTSDFSKXLDKKAQXAFIEYLIEXGESSGAPPPSGE
modifications: Aib, αMeL, acylated Lys (AEEA-γGlu-C18 diacid), C-terminal amide; synthetic construct; SITE 2: note = 2-Aminoisobutyric Acid; SITE 13: note = alpha-methyl-leucine; SITE 17: note = Lysine is chemically modified through conjugation of the epsilon-amino group of the Lysine side chain with (2-[2-(2-Amino-ethoxy)-ethoxy]-acetyl)-(gamma-Glu)-CO-(CH2) 16-CO2H; SITE 20: n
Take B6: in the assay with hGLP-1R, the Relative cAMP EC50 was found to be 0.667 nM and the cAMP Rel EC50, nM (1% HSA) was found to be 130 nM. In assay [1], this molecule gave a Relative cAMP EC50 of 0.0897 nM and a cAMP Rel EC50, nM (1% HSA) of 15 nM. Further, in assay [2], the GLP1R Internalization EC50 is 27.6 nM and the Internalization % TOP stood at 58.2%. Besides, in assay [3], the Relative cAMP EC50 was found to be 5.11 nM and the cAMP Rel EC50, nM (1% HSA) turned out to be 1570 nM.

B7: Example 222 (peptide)
chain: YXQGTFTSDXSXXLDKKAQXAFIEYLIEXGESSGAPPPSGE
modifications: non-natural residues; Lys acylated C18 diacid; C-terminal amide; synthetic construct; SITE 2: note = 2-Aminoisobutyric Acid; SITE 10: note = 3-(4-Pyridyl)-L-alanine; SITE 12: note = L-ornithine; SITE 13: note = alpha-methyl-leucine; SITE 17: note = Lysine is chemically modified through conjugation of the epsilon-amino group of the Lysine side chain with (2-[2-(2-
In the assay with hGLP-1R, B7 displayed a Relative cAMP EC50 of 3.64 nM and a cAMP Rel EC50, nM (1% HSA) of 753 nM. In assay [1], this molecule displayed a Relative cAMP EC50 of 0.228 nM and a cAMP Rel EC50, nM (1% HSA) of 52.5 nM. In assay [2], this molecule showed a GLP1R Internalization EC50 of 34.6 nM and an Internalization % TOP of 52.4%. For the same molecule, in assay [3], the Relative cAMP EC50 came to 2.33 nM and the cAMP Rel EC50, nM (1% HSA) came out at 440 nM.

B8: Example 189 (peptide)
chain: YXQGTFTSDFSXXLDKKAQXAFIEYLLEXGXSSGAPPPSGE
modifications: Aib, Orn, αMeL, 4Pal; lipidated Lys; C-terminal amide; synthetic construct; SITE 2: note = 2-Aminoisobutyric Acid; SITE 12: note = L-ornithine; SITE 13: note = alpha-methyl-leucine; SITE 17: note = Lysine is chemically modified through conjugation of the epsilon-amino group of the Lysine side chain with (2-[2-(2-Amino-ethoxy)-ethoxy]-acetyl)2-(gamma-Glu)
Turning to B8, the results for the Relative cAMP EC50, nM (0.1% casein) (with hGLP-1R; in assay [1]; in assay [3]) were 4.46 nM, 0.0695 nM and 6.28 nM, respectively. The cAMP Rel EC50, nM (1% HSA) with hGLP-1R amounted to 423 nM; in assay [1], 22.2 nM; in assay [3], 853 nM. This molecule also returned a GLP1R Internalization EC50 in assay [2] of 103 nM. Further, the Internalization % TOP in assay [2] is 45.8%.

B9: Example 225 (peptide)
chain: YXQGTFTSDXSRXLDKKAQXAFIEYLIEXGESSGAPPPSGE
modifications: non-natural residues, AEEA-γGlu-C18 diacid acyl on K, C-terminal amide; synthetic construct; SITE 2: note = 2-Aminoisobutyric Acid; SITE 10: note = 3-(4-Pyridyl)-L-alanine; SITE 13: note = alpha-methyl-leucine; SITE 17: note = Lysine is chemically modified through conjugation of the epsilon-amino group of the Lysine side chain with (2-[2-(2-Amino-ethoxy)-ethoxy]-acetyl)
With B9, in the assay with hGLP-1R, the Relative cAMP EC50 worked out at 2.44 nM and the cAMP Rel EC50, nM (1% HSA) came out at 438 nM. In assay [1], this molecule gave a Relative cAMP EC50 of 0.213 nM and a cAMP Rel EC50, nM (1% HSA) of 40.2 nM. In assay [2], this molecule gave a GLP1R Internalization EC50 of 26 nM and an Internalization % TOP of 56.7%. In assay [3], this molecule came in with a Relative cAMP EC50 of 2.36 nM and a cAMP Rel EC50, nM (1% HSA) of 561 nM.
